Source: patent US11827911B2, “Chimeric bacteriophage lysin with activity against Staphylococci bacteria” (priority 2008, dated 2023)

B1: AD 126: S. epidermidis autolysin amidase domain upstream of phiNM3 CWT domain (protein)
chain: MVSSQKTSSLPKYTPKVNSSINNYIRKKNMKAPRIEEDYTSYFPKYGYRNGVGRPEGIVVHDTANDNSTIDGEIAFMKRNYTNAFVHAFVDGNRIIETAPTDYLSWGAGPYGNQRFINVEIVHTHDYDSFARSMNNYADYAATQLQYYNLKPDSAENDGRGTVWTHAAISNFLGGTDHADPHQYLRSHNYSYAELYDLIYEKYLIKTKQVAPWGTTSTKPSQPSKPSGGTNNKLTVSANRGVAQIKPTNNGLYTTVYDSKGHKTDQVQKTLSVTKTATLGNNKFYLVEDYNSGKKYGWVKQGDVVYNTAKAPVKVNQTYNVKAGSTLYTVPWGTPKQVASKVSGTGNQTFKATKQQQIDKATYLYGTVNGKSGWISKYYLTTASKPSNPTKPSTNNQLTVTNNSGVAQINAKNSGLYTTVYDTKGKTTNQIQRTLSVTKAATLGDKKFYLVGDYNTGTNYGWVKQDEVIYNTAKSPVKINQTYNVKPGVKLHTVPWGTYNQVAGTVSGKGDQTFKATKQQQIDKATYLYGTVNGKSGWISKYYLLQGLMNKITNKVKPPAQKAVGKSASKITVGSKAPYNLKWSKGAYFNAKIDGLGATSATRYGDNRTNYRFDVGQAVYAPGTLIYVFEIIDGWCRIYWNNHNEWIWHERLIVKEVF
modifications: Chimeric of Staphylococcus epidermidis autolysin amidase domain and Staphylococcus aureus phage pniNM3 CWT domain
B2: AD 107: lysostaphin CWT domain downstream of PlyB-catalytic domain (protein)
chain: MGYIVDMSKWNGSPDWDTAKGQLDLVIARVQDGSNYVDPVYKDYVAAMKARNIPFGSYAFCRFVSVEDAKVEARDFWNRGDKDSLFWVADVEVTTMSDMRAGTQAFIDELYRLGAKKVGLYVGHHKYEEFGAAQIKCDFTWIPRYGAKPAYPCDLWQYDEYGQVPGIGKCDLNRLNGDKSLDWFTGKGEEAVQLQTPNTGWKTNKYGTLYKSESASFTPNTDIITRTTGPFRSMPQSGVLKAGQTIHYDEVMKQDGHVWVGYTGNSGQRIYLPVRTWNKSTNTLGVLWGTIK
modifications: Chimeric of Bacillus-specific phage lysin PlyB catalytic domain and Staphylococcus simulans metalloendopeptidase Lysostaphin CWT domain
B3: AD 112: S. epidermidis autolysin amidase domain upstream of the lysostaphin CWT domain (protein)
chain: MVSSQKTSSLPKYTPKVNSSINNYIRKKNMKAPRIEEDYTSYFPKYGYRNGVGRPEGIVVHDTANDNSTIDGEIAFMKRNYTNAFVHAFVDGNRIIETAPTDYLSWGAGPYGNQRFINVEIVHTHDYDSFARSMNNYADYAATQLQYYNLKPDSAENDGRGTVWTHAAISNFLGGTDHADPHQYLRSHNYSYAELYDLIYEKYLIKTKQVAPWGTTSTKPSQPSKPSGGTNNKLTVSANRGVAQIKPTNNGLYTTVYDSKGHKTDQVQKTLSVTKTATLGNNKFYLVEDYNSGKKYGWVKQGDVVYNTAKAPVKVNQTYNVKAGSTLYTVPWGTPKQVASKVSGTGNQTFKATKQQQIDKATYLYGTVNGKSGWISKYYLTTASKPSNPTKPSTNNQLTVAGQTIHYDEVMKQDGHTNNSGVAQINAKNSGLYTTVYDTKGKTTNQIQRTLSVTKAATLGDKKFYLVGDYNTGTNYGWVKQDEVIYNTAKSPVKINQTYNVKPGVKLHTVPWGTYNQVAGTVSGKGDQTFKATKQQQIDKATYLYGTVNGKSGWISKYYLLQTPNTGWKTNKYGTLYKSESASFTPNTDIITRTTGPFRSMPQSGVLKVWVGYTGNSGQRIYLPVRTWNKSTNTLGVLWGTIK
modifications: Chimeric of Staphylococcus epidermidis autolysin amidase domain and Staphylococcus simulans metalloendopeptidase Lysostaphin CWT domain
B4: AD 119: Twort lysin endopeptidase domain upstream of the lysostaphin CWT domain (protein)
chain: METLKQAESYIKSKVNTGTDFDGLYGYQCMDLAVDYIYHVTDGKIRMWGNAKDAINNSFGGTATVYKNYPAFRPKYGDVVVWTTGNFATYGHIAIVTNPDPYGDLQYVTVLEQNWNGNGIYKTELATIRTHDYTGITHFIRPNFATESSVKKKDTKKKPKPSNRDGLNKDKIVYDRTNINYNMVLQTPNTGWKTNKYGTLYKSESASFTPNTDIITRTTGPFRSMPQSGVLKAGQTIHYDEVMKQDGHVWVGYTGNSGQRIYLPVRTWNKSTNTLGVLWGTIK
modifications: Chimeric of Staphylococcus aureus bacteriophage Twort domain and Staphylococcus simulans metalloendopeptidase Lysostaphin CWT domain
B5: AD 105: PlyB with its C-terminal CWT domain replaced by the putative C-terminal domain of S. aureus phage Twort lysin (protein)
chain: MGYIVDMSKWNGSPDWDTAKGQLDLVIARVQDGSNYVDPVYKDYVAAMKARNIPFGSYAFCRFVSVEDAKVEARDFWNRGDKDSLFWVADVEVTTMSDMRAGTQAFIDELYRLGAKKVGLYVGHHKYEEFGAAQIKCDFTWIPRYGAKPAYPCDLWQYDEYGQVPGIGKCDLNRLNGDKSLDWFTGKGEEAVQWNVNNYGTYYKSESATFKCTARQGIVTRYTGPFTTCPQAGVLYYGQSVTYDTVCKQDGYVWISWTTNGGQDVWMPVRTWDKNTDIMGQLWGDIY
modifications: Cimeric of Bacillus-specific phage lysin PlyB catalytic domain and Staphylococcus aureus bacteriophage Twort domain

What was measured:
MRSA strain MW2 = assay: Systemic MRSA infection model, survival; assay type: in vivo, FVB/NJ mice; settings: 100 μg/mouse of oxacillin alone, 10 days
Method: In order to assess whether ClyS treatment could prevent death resulting from systemic MRSA infections, 4 week old FVB/NJ mice were intraperitoneally injected with ˜5×10^5 CFU of the community-acquired MRSA strain MW2 in 5% mucin. Preliminary experiments determined that 5×10^5 CFU was 10× the LD100 dose for a twenty-four hour period. Furthermore, within 3 hours of IP injection the MRSA infection was systemic. i.e., MRSA were recovered in high numbers from heart, liver, spleen, and kidney (data not shown). Treatment occurred three hours post-infection, with either 20 mM phosphate buffer or 1 mg of ClyS in 20 mM phosphate buffer injected IP (intraperitoneally). Mice were then monitored for survival over ten days. The results from three independent experiments were combined (ClyS treatment, n=16; buffer treatment, n=14) and the mice survival data plotted with a Kaplan Meier Survival curve (FIG. 12), Within twenty-four hours all of the control mice died of bacterial sepsis, while only 2/16 of ClyS treated mice died at forty-eight hours, and the remaining mice (14/16, 88%) survived over the course of the experiments (FIG. 12).
To determine if this effect could be seen in our systemic MRSA infection model, FVB/NJ mice were intraperitoneally injected with ˜5×10^5 CFUs of the MRSA strain MW2 as above. Three hours post infection mice were treated in parallel, with a lower IP dose of 130 μg/mouse of ClyS combined with different concentrations of oxacillin (10-100 μg/mouse) or buffer alone controls. Preliminary experiments determined that an ED30 dose of ClyS (130 μg/mouse) had minimal efficacy to evaluate the effect of combinatorial treatment with oxacillin (data not shown). Mice were monitored for survival for 10 days and the results of 5 independent experiments were combined and plotted in a Kaplan Meier Survival curve (FIG. 14).

MRSA strain COL = assay: Checkerboard broth-microdilution assay; assay type: cell-based, Staphylococcus aureus; settings: Staphylococcus aureus, read-out: MIC
Description: (§1) We used the checkerboard broth-microdilution assay to test the interaction of ClyS with vancomycin and with oxacillin. […] Isobolograms for ClyS with vancomycin and ClyS with oxacillin was plotted by transcribing the enzyme concentrations along the inhibitory line on the microtiter plate in an x/y plot.

VISA strain Mu50 = assay: Checkerboard broth-microdilution assay; assay type: cell-based, Staphylococcus aureus; settings: Staphylococcus aureus, VISA
Description: as §1

staphylococcal strains = settings: by altering peptide cross-bridges; cited from earlier work
S. aureus = assay: Lytic assays of chimeric lysins against S. aureus; assay type: cell-based, Staphylococcus aureus; settings: for lytic/killing activity against S. aureus: qualitative
Description: For this, the endopeptidase domain in Twort lysin (14) was used to construct chimera AD 119 (SEQ ID NO:3). […] To overcome low expression of AD 127 construct, the entire chimera gene was cloned into expression vector pJML6 to generate pAD 138.

[1] = Solubility of expressed lysins and chimeras
Method: In another embodiment, the lysin is a chimeric protein that comprises an endopeptidase domain of the S. aureus Twort lysin upstream of the phiNM3 CWT domain (SEQ ID NO:1). The chimeric polypeptide is preferably sufficiently soluble in phosphate buffered saline (PBS). Preferred levels of solubility in PBS for the chimeric lysins is at least about 1 mg/ml and more preferably at least about 3 mg/mL. in PBS. […] One example of such a lysin is provided in SEQ ID NO:2 (AD127), shown in FIG. 5A and consisting of the Twort lysin endopeptidase domain attached to the phiNM3 CWT domain (SEQ ID NO:1). The isolated polypeptide of SEQ ID NO:2 (AD 127) was constructed by engineering S. epidermidis autolysin amidase and Twort lysin endopeptidase domains upstream of phiNM3 CWT domain, respectively.
Traditionally, Bacillus-specific lysins are expressed at high levels and are soluble in E. coli. Therefore, our first attempt was to engineer a 16-amino acid peptide (4) that is conserved in several S. aureus-specific lysins (Lu J Z, Fujiwara T, Komatsuzawa H, Sugai M, Sakon J. 2006. Cell wall-targeting domain of glycylglycine endopeptidase distinguishes among peptidoglycan cross-bridges. (Lue et al. (2006) J. Biol. Chem. 281(1):549-58) The catalytic domain of the Bacillus-specific lysin PlyB was used to generate chimera AD 103 (FIG. 4) (SEQ ID NO: 13). The chimeras were tested for expression, solubility and activity. Then the entire C-terminal CWT domain of PlyB (6) was replaced by the putative C-terminal domain of S. aureus phage Twort lysin (8) to obtain AD 105 (SEQ ID NO: 14). […] Since the lysostaphin catalytic domain […] (10) in AD 112 was of bacterial origin, we attempted to engineer a phage-derived catalytic domain upstream of the lysostaphin CWT. For this, the endopeptidase domain in Twort lysin (14) was used to construct chimera AD 119 (SEQ ID NO:3).

Row | Molecule | lytic/killing activity against S. aureus (S. aureus) | solubility of the expressed protein [1] | further results
1 | Cc1onc(-c2ccccc2)c1C(=O)N[C@@H]1C(=O)N2[C@@H]1SC(C)(C)[C@@H]2C(=O)O [oxacillin, reference compound] |  |  | survival (MRSA strain MW2): 35%; MIC (MRSA strain COL): 32 µg/mL
2 | CN[C@H](CC(C)C)C(=O)N[C@H]1C(=O)N[C@@H](CC(N)=O)C(=O)N[C@H]2C(=O)N[C@H]3C(=O)N[C@H](C(=O)N[C@H](C(=O)O)c4cc(O)cc(O)c4-c4cc3ccc4O)[C@H](O)c3ccc(c(Cl)c3)Oc3cc2cc(c3O[C@@H]2O[C@H](CO)[C@@H](O)[C@H](O)[C@H]2O[C@H]2C[C@](C)(N)[C@H](O)[C@H](C)O2)Oc2ccc(cc2Cl)[C@H]1O [vancomycin, reference compound] |  |  | MIC (VISA strain Mu50): 8 µg/mL
3 | lysostaphin: staphylolytic enzyme produced by Staphylococcus simulans |  |  | frequency of developing resistance (staphylococcal strains): 10^−6
4 | B1 | no expression or activity |  | 
5 | B2 | no activity | poor | 
6 | B3 | no lytic activity | very soluble | effect on S. aureus cells when exposed (S. aureus): clumped
7 | B4 | did not show significant activity | soluble | 
8 | B5 | not active |  | 
